In PMC7183857:
Like-named read-outs stand apart in the source and are kept apart here.

Key:
Assay in all cases: co-sedimentation
[1] = target: CA_(14C/45C/E75A) tubes (HIV-1)
[2] = target: A14C/E45C disulfide-crosslinked CA tubes (HIV-1)
[3] = target: CA_(14C/45C/E71A) tubes (HIV-1)
[4] = target: CA_(14C/45C/E213A) tubes (HIV-1)
[5] = target: A14C/E45C disulfide-crosslinked CA tubes (HIV-1); remark: listed apart in the source

## MxB_(1–35)-MBPdi (from UniProt P20592 1-35)
[1]
  binding as percent of WT CA tubes: 60 % of WT
[2]
  percent binding: 80%
  percent bound: > 90%
  percent co-pelleted: > 90%
[3]
  binding as percent of WT CA tubes: 60 % of WT
[4]
  binding as percent of WT CA tubes: 40 % of WT
[5]
  percent binding: 20%
